Read-outs that look alike come from different tables or passages of the source.
How the values were obtained:
[1] = molecular target: ubiquitin-7-amino-4-methyl coumarin (Ub-AMC) (UniProt P0CG47)
[2] = molecular target: ubiquitin-7-amino-4-methyl coumarin (Ub-AMC) (UniProt P0CG47); remark: listed apart in the source

Row | Substance | DUB activity in vitro with Ub-AMC as substrate (Kapp, percent of WT) [1] | DUB activity in vitro with Ub-AMC as substrate (Kapp, percent of WT) [2]
1 | TYMV PRO/DUB E759A (enzyme) | 137 % of WT | 
2 | TYMV PRO/DUB N760A (enzyme) | 135 % of WT | 
3 | TYMV PRO/DUB N760A/R844A (enzyme) |  | 344 % of WT
4 | TYMV PRO/DUB R844A (enzyme) |  | 320 % of WT
5 | TYMV PRO/DUB T763A (enzyme) | 89 % of WT | 

Reference: publication PMC7535911
